# Results from patent US20240018501A1, “HIGHER PERFORMANCE PROTEASES FOR SCARLESS PEPTIDE TAG REMOVAL” (priority 2017, published 2024).
# B1: His6-LicP-25-433 (protein)
# chain: GSSHHHHHHSQDPKEQAGEQYLLLEHVKDKSKLLDTAEQFHIHADVIEEIGFAKVTGEKQKLAPFTKKLAEKVGADVIEKPIANTAVNETESVISGSPAWGLDGILELKEYLWFAAKQTDSYRTYQIERGHPDVKVALIDSGLDLDHPDLKASVNTNGGWNYIDGKPVSGDPTGHGTQTAGMINIIAPDVTITPYQVLDEKGGDSYNIMKAMVDAVNDGHEVINISTGSYTSLDREGKVLMKAYQRAANYAAKHQVLVFSSAGNKGVNLDEMRKTENKVHLPSALKHVVSVGSNMKSNNISPYSNQGREIEFTAPGGYLGETYDQDGMVRVTDLVLTTYPKGKDNTALDQMLNIPKGYSLSYGTSLAAPQVAGTAALVISEYRERHHRKPSAKQVHHILRKSALDLGKPGKDVIYGYGEVRAYQALKMMNKE
# How the values were obtained:
# LicP = LicP self-cleavage and intermolecular cleavage (SDS-PAGE, MALDI-TOF MS); assay type: biochemical, Bacillus licheniformis ATCC 14580
# Experimental: Expression and purification of LicP and LicP mutant proteins. E. coli BL21 (DE3) cells were transformed with one of the following plasmids: pRSFDuet-1/LicP-25-433, pRSFDuet-1/LicP-25-433-S376A, pRSFDuet-1/LicP-25-433-H186A, pRSFDuet-1/LicP-25-433-E100A or pRSFDuet-1/LicP-25-433-E100A-E102A, and plated on an LB plate containing 50 mg/L kanamycin. A single colony was picked and grown in 20 mL of LB containing 50 mg/L kanamycin at 37° C. for 12 h and the resulting culture was inoculated into 2 L of LB containing 50 mg/L kanamycin. Cells were cultured at 37° C. until the OD at 600 nm reached 0.5, cooled and IPTG was added to a final concentration of 0.1 mM. The cells were cultured at 18° C. for another 10 h before harvesting. The cell pellet was resuspended on ice in LanP buffer (20 mM HEPES, 1 M NaCl, pH 7.5 at 25° C.) and lysed by homogenization. The lysed sample was centrifuged at 23,700×g for 30 min and the pellet was discarded. […] Protein concentration was quantified by the absorbance at 280 nm. The extinction coefficient for His6-LicP-25-433 was calculated as 46,300 M^−1 cm^−1. […]
# Intermolecular cleavage of His6-LicP-25-433-S376A by His6-LicP-25-433. […] The three reactions were allowed to proceed at room temperature for 0, 2, 4, 7 and 19 h before being stopped by addition of SDS loading buffer and boiling at 95° C. for 10 min and analyzed by SDS-PAGE.
# [1] = Storage and freeze-thaw stability of the proteases; assay type: physicochemical
# Sequence of NisA-NDVNPE-I1E, P13068 (P13068 whole entry, looked up): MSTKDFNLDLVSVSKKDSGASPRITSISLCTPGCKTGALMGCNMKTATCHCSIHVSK
# Sequence of NisA-NDVNPE-I1F, P13068 (P13068 whole entry, looked up): as above
# Sequence of NisA-NDVNPE-I1L, P13068 (P13068 whole entry, looked up): as above
# Sequence of NisA-NDVNPE-I1T, P13068 (P13068 whole entry, looked up): as above
# Sequence of NisA-NDVNPE-I1W, P13068 (P13068 whole entry, looked up): as above
# Sequence of NisA-NDVNPE-I1C, P13068 (P13068 whole entry, looked up): as above
# Sequence of NisA-NDVNPE, P13068 (P13068 whole entry, looked up): as above
# Sequence of NisA-NDVNPE-I1K, P13068 (P13068 whole entry, looked up): as above
# Sequence of NisA-NDVNPE-I1G, P13068 (P13068 whole entry, looked up): as above
molecule,measurement,setting,value
B1,LicP self-cleavage during expression,LicP,a cleavage event occurred
same,activity after multiple rounds of freeze-thaw,[1],no obvious decrease in activity
same,activity after storage,[1]; 12 weeks at 4° C,persistent activity
same,"time-dependent cleavage by LicP, gel-based assay (100 µM peptide, 0.4 µM LicP)",LicA2-D-5K,LicA2-D-5A and LicA2-D-5K are processed much more slowly
same,"Complete Reaction? (LicP cleavage; [LicP] 2 µM, [Substrate] 65 µM, 30 h at RT)","NisA-NDVNPE-I1E, P13068",N
same,"removal of the NisA leader peptide by LicP, MALDI-TOF MS","NisA-NDVNPE-I1E, P13068",Peptides with Glu or Phe in the P1′ position turned out to be poor substrates
same,"Complete Reaction? (LicP cleavage; [LicP] 0.2 µM, [Substrate] 180 µM, 4 h at RT)",ProcA1.7-NDVNPE,Y
same,"competitive MALDI-TOF MS assay (21 nM LicP, 17 µM each of modified LicA2 and linear G-LicA2)",linear G-LicA2,the cleavage of linear LicA2 only started after the modified LicA2 had been consumed and required more enzyme to be completed
same,"time-dependent cleavage by LicP, gel-based assay (100 µM peptide, 0.4 µM LicP)",LicA2-V-4A,still accepted by LicP with a slightly reduced cleavage efficiency
same,"time-dependent cleavage by LicP, gel-based assay (100 µM peptide, 0.4 µM LicP)",LicA2-N-3A,alanine substitution at both sites did not alter the processing efficiency of LicP significantly
same,"Complete Reaction? (LicP cleavage; [LicP] 2 µM, [Substrate] 65 µM, 30 h at RT)","NisA-NDVNPE-I1L, P13068",N
same,"removal of the NisA leader peptide by LicP, MALDI-TOF MS","NisA-NDVNPE-I1L, P13068","also accepted by LicP, although some substrate still remained after 30 hours of incubation"
same,"Complete Reaction? (LicP cleavage; [LicP] 2 µM, [Substrate] 65 µM, 30 h at RT)","NisA-NDVNPE-I1G, P13068",Y
same,"removal of the NisA leader peptide by LicP, MALDI-TOF MS","NisA-NDVNPE-I1G, P13068","in front of a Gly or Ile residue was slightly less efficient, but complete consumption of precursor peptides was still observed"
same,"time-dependent cleavage by LicP, gel-based assay (100 µM peptide, 0.4 µM LicP)",LicA2-E-1D,even substitution with structurally related amino acids Asp and Gln was not tolerated
same,"time-dependent cleavage by LicP, gel-based assay (100 µM peptide, 0.4 µM LicP)",LicA2-D-5A,LicA2-D-5A and LicA2-D-5K are processed much more slowly
same,"time-dependent cleavage by LicP, gel-based assay (100 µM peptide, 0.4 µM LicP)",LicA2-V-4L,still accepted by LicP with a slightly reduced cleavage efficiency
same,"time-dependent cleavage by LicP, gel-based assay (100 µM peptide, 0.4 µM LicP)",LicA2-P-2A,alanine substitution at both sites did not alter the processing efficiency of LicP significantly
same,"time-dependent cleavage by LicP, gel-based assay (100 µM peptide, 0.4 µM LicP)",LicA2-E-1A,LicA2-E-1A was not a substrate under the assay conditions
same,"time-dependent cleavage by LicP, gel-based assay (100 µM peptide, 0.4 µM LicP)",LicA2-E-1Q,even substitution with structurally related amino acids Asp and Gln was not tolerated
same,"time-dependent cleavage by LicP, gel-based assay (100 µM peptide, 0.4 µM LicP)",LicA2-V-4F,LicA2-V-4F was no longer processed
same,"Complete Reaction? (LicP cleavage; [LicP] 0.2 µM, [Substrate] 65 µM, 20 h at RT)","NisA-NDVNPE-I1C, P13068",Y
same,"removal of the NisA leader peptide by LicP, MALDI-TOF MS","NisA-NDVNPE-I1C, P13068",The highest proteolytic efficiency was obtained when the P1′ position was occupied by Thr or Cys
same,"Complete Reaction? (LicP cleavage; [LicP] 2 µM, [Substrate] 65 µM, 30 h at RT)","NisA-NDVNPE-I1K, P13068",N
same,"removal of the NisA leader peptide by LicP, MALDI-TOF MS","NisA-NDVNPE-I1K, P13068","also accepted by LicP, although some substrate still remained after 30 hours of incubation"
same,"intermolecular cleavage of the S376A mutant by wild type LicP, SDS-PAGE, 1:1, 0.1 mg/mL each",His6-LicP-25-433-S376A,"autoprotolysis can take place intermolecularly, albeit slowly"
same,"Complete Reaction? (LicP cleavage; [LicP] 2 µM, [Substrate] 65 µM, 30 h at RT)","NisA-NDVNPE-I1F, P13068",N
same,"removal of the NisA leader peptide by LicP, MALDI-TOF MS","NisA-NDVNPE-I1F, P13068",Peptides with Glu or Phe in the P1′ position turned out to be poor substrates
same,"Complete Reaction? (LicP cleavage; [LicP] 0.5 µM, [Substrate] 50 µM, 12 h at 4 C)",MBP-BamL,Y
same,"removal of the MBP tag, SDS-PAGE time course, against TEV protease",MBP-BamL,LicP was capable of removing the MBP-tag in front of the BamL protein with similar efficiency as TEV
same,"Complete Reaction? (LicP cleavage; [LicP] 0.2 µM, [Substrate] 65 µM, 20 h at RT)","NisA-NDVNPE-I1T, P13068",Y
same,"removal of the NisA leader peptide by LicP, MALDI-TOF MS","NisA-NDVNPE-I1T, P13068",The highest proteolytic efficiency was obtained when the P1′ position was occupied by Thr or Cys
same,"Complete Reaction? (LicP cleavage; [LicP] 2 µM, [Substrate] 65 µM, 30 h at RT)","NisA-NDVNPE-I1W, P13068",N
same,"removal of the NisA leader peptide by LicP, MALDI-TOF MS","NisA-NDVNPE-I1W, P13068","also accepted by LicP, although some substrate still remained after 30 hours of incubation"
same,"cleavage by LicP, MALDI-TOF MS",DVNPE-Licβ,the 5-residue oligopeptide was successfully removed
same,"Complete Reaction? (LicP cleavage; [LicP] 1 µM, [Substrate] 290 µM, 6 h at RT)",Linear LicA2,Y
same,"Complete Reaction? (LicP cleavage; [LicP] 21 nM, [Substrate] 17 µM, 10 min at RT)",Modified LicA2,Y
same,"rate of cleavage in a competitive MALDI-TOF MS assay (21 nM LicP, 17 µM each of modified LicA2 and linear G-LicA2)",Modified LicA2,"complete consumption of modified LicA2 peptide within 10 min, corresponding to a rate of at least 80 min^-1"
same,"Complete Reaction? (LicP cleavage; [LicP] 2 µM, [Substrate] 65 µM, 30 h at RT)","NisA-NDVNPE, P13068",Y
same,"removal of the NisA leader peptide by LicP, MALDI-TOF MS","NisA-NDVNPE, P13068","in front of a Gly or Ile residue was slightly less efficient, but complete consumption of precursor peptides was still observed"
